Positions of bridges follow the written chain, without caps; N, C: chain ends. No end group written: not given here.
T1: human holotranscobalamin (holoTC) (human, UniProt P20062 19-427, cobalamin bound (holo form, non-covalent))
T1 construct: Recombinant human holoTC in the SPR work; also called holo-TCII
T1 chain: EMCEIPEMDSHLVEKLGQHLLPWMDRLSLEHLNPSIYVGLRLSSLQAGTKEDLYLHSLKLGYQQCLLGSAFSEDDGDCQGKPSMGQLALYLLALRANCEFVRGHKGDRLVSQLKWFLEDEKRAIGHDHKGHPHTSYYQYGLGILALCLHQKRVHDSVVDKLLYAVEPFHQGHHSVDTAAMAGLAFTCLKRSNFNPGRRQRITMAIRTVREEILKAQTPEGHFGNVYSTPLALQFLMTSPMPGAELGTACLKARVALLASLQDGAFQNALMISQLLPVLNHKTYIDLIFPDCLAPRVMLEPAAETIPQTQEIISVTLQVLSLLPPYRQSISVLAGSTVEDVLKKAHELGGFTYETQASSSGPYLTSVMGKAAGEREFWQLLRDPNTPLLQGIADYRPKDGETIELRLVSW

T2: human apotranscobalamin (apoTC) (human, UniProt P20062 19-427)
T2 construct: Same chain as holoTC without cobalamin; also called apo-TCII
T2 chain: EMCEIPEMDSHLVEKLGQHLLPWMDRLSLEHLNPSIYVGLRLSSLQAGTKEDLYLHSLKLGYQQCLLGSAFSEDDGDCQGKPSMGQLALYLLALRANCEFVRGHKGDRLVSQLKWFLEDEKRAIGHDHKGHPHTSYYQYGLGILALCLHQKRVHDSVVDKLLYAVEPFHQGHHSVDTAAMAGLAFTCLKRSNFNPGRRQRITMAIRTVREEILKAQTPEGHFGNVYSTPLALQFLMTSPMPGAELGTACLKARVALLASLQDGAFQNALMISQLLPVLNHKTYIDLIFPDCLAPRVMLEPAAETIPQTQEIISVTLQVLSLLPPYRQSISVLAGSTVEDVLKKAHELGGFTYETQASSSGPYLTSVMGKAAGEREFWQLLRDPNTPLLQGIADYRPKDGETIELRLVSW

B1: monoclonal antibody TC2 (antibody, mouse IgG1, V domains shown)
VH: QVQLKQSGPGLLQPSQSLSITCTVSGFSLTYYGVHWVRQSPVKGLEWLGVIWSGGDTDYDTTFISRLSISKDNSKGQVFFKMTSLQTDDTAIYYCARGRTYGIHFDYWGQGTTLTVSS
VL: DIVMSQSPSSLAVSVGEKVTMSCKSSQSLFNSRTRKNYLAWYQQKPGQSPKVLIYWASTRESGVPDRFTGSGSGTDFTLTISSVQAEDLAIYYCKQFYDLWTFGGGTKLEIKR
notes: also called mAb TC2; ECACC 02110742

Legend:
monoclonal antibody 3C4 [1] = molecular target: T3, monoclonal antibody 3C4; experiment: SPR, 3C4 immobilised, phagemid injected
T3 construct: also called mAb 3C4; 3C4 (3CY)
Protocol: (§1) The carboxylated surface of the a dextran coated CM5 chip (Biacore, Sweden) was activated according to protocol supplied by the manufacturer. In short 0.05M N-hydroxysuccinimide (NHS)/0.2 M N-ethyl-N′-[3-(dimethylamino)propyl]carbodiimide hydrochloride (EDC), was injected over the carboxylated chip at 10 μL/min for 7 min, then 50 μg/mL rabbit anti-mouse IgG polyclonal antibody in 10 mM acetate buffer, pH 5.0 is injected at 10 μL/min for 7 min, and finally the chip is blocked by injection of 1 M ethanolamine at 10 μL/min for 7 min. Immobilization of mouse monoclonal antibodies on the dextran coated chip was performed in the same way.
(§2) Antibodies were covalently immobilized on a dextran coated CM5 chip as described in Example 2. Phages were diluted 10-fold in HBS-EP and injected at 10 μL/min for 3 min. The amounts of phagemid bound was recorded in real time and expressed in response units (RU). To evaluate blocking by holoTC, 1 μM of holoTC was injected at 10 μL/min for 5 min prior to the injection of phagemids at 10 μL/min for 3 min. Inhibition was computed as the number of RU of phagemid bound to 3C4 with pretreatment with holoTC divided with the number of RU bound without pretreatment, times 100.
Target sequence in this assay (VH, as listed by the source, chain 1 of 2): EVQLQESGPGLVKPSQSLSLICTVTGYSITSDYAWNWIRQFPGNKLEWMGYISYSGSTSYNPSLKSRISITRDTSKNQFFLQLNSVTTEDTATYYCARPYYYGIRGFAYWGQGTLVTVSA
Target sequence in this assay (VL, as listed by the source, chain 2 of 2): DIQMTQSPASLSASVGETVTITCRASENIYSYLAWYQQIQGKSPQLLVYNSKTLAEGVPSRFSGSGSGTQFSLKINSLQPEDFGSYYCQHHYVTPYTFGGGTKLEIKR

monoclonal antibody 3C4 [2] = molecular target: T3, monoclonal antibody 3C4; experiment: phage ELISA, coated mAb 3C4, 10^8 phagemid per well
Protocol: (§3) Microtitre plates were coated with 100 μL, 1 μg/mL mAb 3C4 or unrelated control antibody in PBS over night at 4 C. Remaining binding sites were blocked with 20 mg/mL bovine serum albumin (BSA) in PBS for 1 h. Some wells were only coated with BSA. Monoclonal packaged phagemids were added at a concentration of 10¹⁰ to 10⁸ cfu per well in PBS and incubated for 1 h. Preparations of packaged phagemids were centrifuged to remove aggregates. Wells were washed 6 times with PBS containing 0.1% Tween-20 and 3 times with PBS. For detection of bound phages 100 μL of horse-radish peroxidase (HRP) conjugated anti-[…] antibody (e.g. Pharmacia) diluted 1/5000 in PBS was added to each well and incubated for 1 h at ambient temperature. ELISA plates were washed 5 times with PBS containing 0.1% Tween-20 and 3 times with PBS. The chromogenic substrate o-Phenyldiamine in citric acid, pH 4.0 supplemented with H₂O₂ was added and the color generating reaction was stopped after 2-5 min by addition of 2 M H₂SO₄.
Target sequence in this assay (VH, as listed by the source, chain 1 of 2): as the sequence (VH, as listed by the source, chain 1 of 2) above
Target sequence in this assay (VL, as listed by the source, chain 2 of 2): as the sequence (VL, as listed by the source, chain 2 of 2) above

monoclonal antibody 3C4 [3] = molecular target: T3, monoclonal antibody 3C4; experiment: SPR, inhibition of phagemid binding to 3C4 by 1 uM holoTC (competitor)
Protocol: as §1, §2
Target sequence in this assay (VH, as listed by the source, chain 1 of 2): as the sequence (VH, as listed by the source, chain 1 of 2) above
Target sequence in this assay (VL, as listed by the source, chain 2 of 2): as the sequence (VL, as listed by the source, chain 2 of 2) above

monoclonal antibody 3C4 [4] = molecular target: T3, monoclonal antibody 3C4; experiment: phage ELISA, coated mAb 3C4, 10^9 phagemid per well
Protocol: as §3
Target sequence in this assay (VH, as listed by the source, chain 1 of 2): as the sequence (VH, as listed by the source, chain 1 of 2) above
Target sequence in this assay (VL, as listed by the source, chain 2 of 2): as the sequence (VL, as listed by the source, chain 2 of 2) above

monoclonal antibody 3C4 [5] = molecular target: T3, monoclonal antibody 3C4; experiment: phage ELISA, coated mAb 3C4, 10^10 phagemid per well
Protocol: as §3

monoclonal antibody 3C4 [6] = molecular target: T3, monoclonal antibody 3C4; experiment: SPR, phagemid bound to 3C4 after 1 uM holoTC (competitor)
Protocol: as §1, §2
Target sequence in this assay (VH, as listed by the source, chain 1 of 2): as the sequence (VH, as listed by the source, chain 1 of 2) above
Target sequence in this assay (VL, as listed by the source, chain 2 of 2): as the sequence (VL, as listed by the source, chain 2 of 2) above

[7] = molecular target: T1, human holotranscobalamin (holoTC); experiment: SPR; holoTC against apoTC
[8] = molecular target: T1, human holotranscobalamin (holoTC); experiment: SPR (Biacore), mAb on chip, TC injected
[9] = molecular target: T1, human holotranscobalamin (holoTC); experiment: SPR (BIAcore), antibody immobilised
[10] = molecular target: T2, human apotranscobalamin (apoTC); experiment: SPR (BIAcore), antibody immobilised
[11] = molecular target: T1, human holotranscobalamin (holoTC); experiment: SPR (Biacore); Kd values for holoTC
[12] = molecular target: T1, human holotranscobalamin (holoTC); experiment: SPR (BIAcore), antibody immobilised; head read as 10^-4
[13] = molecular target: T2, human apotranscobalamin (apoTC); experiment: as above
[14] = molecular target: T1, human holotranscobalamin (holoTC); experiment: SPR, scFv injected over immobilised holoTC
Protocol: Selected scFv antibodies were evaluated by surface plasmon resonance essentially as described in Example 2. Purified antibody preparations were injected over a chip with immobilized holoTC. The holoTC chip was prepared by binding holoTC to a chip prepared as described in 2.1 or by binding biotinylated holoTC on a streptavidin coated SA chip (Biacore, Sweden).

[15] = molecular target: T1, human holotranscobalamin (holoTC); experiment: SPR (BIAcore), scFv immobilised; head read as 10^-4
[16] = molecular target: T2, human apotranscobalamin (apoTC); experiment: as above
[17] = molecular target: T1, human holotranscobalamin (holoTC); experiment: SPR (BIAcore), scFv immobilised
monoclonal antibody 3C4 [18] = molecular target: T3, monoclonal antibody 3C4; experiment: SPR, mAb 3C4 immobilised, phagemid injected
Protocol: as §1, §2
Target sequence in this assay (VH, as listed by the source): as the sequence (VH, as listed by the source, chain 1 of 2) above

monoclonal antibody 3-9 = molecular target: T4, monoclonal antibody 3-9; experiment: SPR, mAb 3-9 immobilised, phagemid injected
T4 construct: Antibody from State University of New York; also called mAb 3-9
Protocol: as §1, §2

monoclonal antibody TC2 = molecular target: B1; experiment: SPR, mAb immobilised, phagemid injected (Table 5; 1 RU)
Protocol: as §1, §2

Binder | Phage bound (RU) (monoclonal antibody 3C4 [1]) | ELISA (absorbance units) (monoclonal antibody 3C4 [2]) | Inhibition (%) (monoclonal antibody 3C4 [3]) | ELISA (absorbance units) (monoclonal antibody 3C4 [4]) | ELISA (absorbance units) (monoclonal antibody 3C4 [5]) | Block by holoTC (RU) (monoclonal antibody 3C4 [6]) | phagemid bound (RU) (monoclonal antibody 3C4 [18]) | phagemid bound (RU) (monoclonal antibody 3-9) | also measured
CSGLYPWDYFMCS (disulfide 1-12 (inferred); also: displayed on phage (phagemid)) [phagemid CS1-29p (phage-displayed disulfide cyclized 13 mer peptide)] | 20 | 0.156 | 85 | 0.189 | 0.335 | 3 | – | – | –
B1 | – | – | – | – | – | – | – | – | holo/apo Specificity (-fold) [7]: 1 -fold; Kd [8]: 1 to 5 nM; Ka [9]: 2.5e+08 M⁻¹; kon [9]: 100000 M⁻¹ s⁻¹; Ka [10]: 7e+07 M⁻¹; kon [10]: 100000 M⁻¹ s⁻¹; Kd [11]: 1 to 5 nM; koff [12]: 0.0004 s⁻¹; koff [13]: 0.0015 s⁻¹
mutated scFv 3C4 clone 3.9G2 (scFv, A190T stands in the next printed row (r19)) scFv: EVQLQESGPGLVKPSLSLSLICTVTGYSIASDYTWNWIRQFPGNKLEWMGYISYSGSTSYNPSLKSRISITRDTSKNQFFLQLNSVTTEDTATYYCARPYYYGIRGFAYWGQGTLVTVSAGGGGSGGGGSGGGGSDIQMTQSPASLSASVGETVTITCRASENIYSYLAWYQQIQGKSPQLLVYNSKTLTEGVPSRFSGSGSGTQFSLKINSLQPEDFGSYYCQHHYVTPYTFGGGTKLEIKR | – | – | – | – | – | – | – | – | Kd [14]: 150 nM; koff [14]: 0.00059 s⁻¹; kon [14]: 3800 M⁻¹ s⁻¹
single chain antibody fragment TC2_ScFv (scFv, A C-terminal tag may be present; also called scFv TC2) scFv: QVQLKQSGPGLLQPSQSLSITCTVSGFSLTYYGVHWVRQSPVKGLEWLGVIWSGGDTDYDTTFISRLSISKDNSKGQVFFKMTSLQTDDTAIYYCARGRTYGIHFDYWGQGTTLTVSSGGGGSGGGGSGGGGSDIVMSQSPSSLAVSVGEKVTMSCKSSQSLFNSRTRKNYLAWYQQKPGQSPKVLIYWASTRESGVPDRFTGSGSGTDFTLTISSVQAEDLAIYYCKQFYDLWTFGGGTKLEIKR | – | – | – | – | – | – | – | – | koff [15]: 0.0015 s⁻¹; koff [16]: 0.0015 s⁻¹; Ka [17]: 3e+06 M⁻¹; kon [17]: 4000 M⁻¹ s⁻¹
CSFRYQWDMFRCS (disulfide 1-12 (inferred); also: displayed on phage (phagemid)) [phagemid CS1-11p (phage-displayed disulfide cyclized 13 mer peptide)] | 32 | 0.348 | 100 | 0.559 | 0.645 | 0 | 32 | 0 | –
CSGLYPWDMFRCS (disulfide 1-12 (inferred); also: displayed on phage (phagemid)) [phagemid CS1-9p (phage-displayed disulfide cyclized 13 mer peptide)] | 35 | 0.259 | 87 | 0.539 | 0.769 | 1 | – | – | –
CSFRYLWDQDRCS (disulfide 1-12 (inferred); also: displayed on phage (phagemid)) [phagemid CS1-6p (phage-displayed disulfide cyclized 13 mer peptide)] | 24 | 0.406 | 88 | 0.664 | 1.06 | 3 | 45 | 0 | binding result (monoclonal antibody TC2): no binding
CSLFYLWDQDRCS (disulfide 1-12 (inferred); also: displayed on phage (phagemid), coat fusion not given here) [phagemid CS1-2p (phage-displayed disulfide cyclized 13 mer peptide)] | 4 | 0.245 | – | 0.224 | 0.287 | – | – | – | –
CSFFYSLCYCWCS (disulfide (positions not given here); also: four Cys, disulfide pairing not given here, also called CSI-31p) [phagemid CS1-31p (phage-displayed disulfide cyclized 13 mer peptide)] | 42 | 0.152 | 88 | 0.165 | 0.298 | 5 | 42 | 0 | –
